Source: the Human Domainome abundance scans (Beltran et al. 2025)

B1: POU domain, class 6, transcription factor 2, residues 609 to 663; numbered along this chain, P78424 (parent)
chain: KRRTSFTPQALEILNAHFEKNTHPSGQEMTEIAEKLNYDREVVRVWFCNKRQALK

Variants of: B1
Assay: abundance fitness (aPCA) (normalised: wild type 0, dead -1); higher = more abundant; growth selection in yeast, the domain comes from the species named
Settings: Homo sapiens

Abundance fitness: each site, then its substitutions
T22: A 0.006 | D -0.037 | I -0.103 | R 0.005 | V 0.105 | L -0.017 | S 0.003 | W -0.176 | Q 0.084 | N 0.049 | E -0.098 | Y -0.201 | G 0.002 | H 0.134 | F -0.198 | K -0.089 | P 0.016 | M -0.022
E19: G -0.148 | L -0.057 | W -0.127 | A 0.046 | P -1.05 | M -0.013 | F -0.288 | D -0.037 | I 0.032 | N -0.07 | H -0.092 | C -0.085 | R -0.05 | S 0.073 | Q -0.391
H23: V -0.086 | P -1.1 | Q -0.029 | I -0.169 | Y -0.257 | F -0.096 | W -0.124 | A -0.062 | C 0.018 | S 0.036 | R 0.011 | M -0.275 | K -0.034 | N -0.027 | E 0.072 | G -0.217
G26: L -0.054 | Q -0.415 | F -0.173 | K -0.114 | W 0.119 | I -0.02 | A 0.035 | C -0.027 | M -0.078 | N -0.041 | P -0.004 | E 0.119 | V 0.073 | R -0.032 | T 0.03 | S -0.08
E28: P -0.998 | Y -0.113 | Q -0.171 | R -0.175 | I -0.02 | S -0.321 | N -0.313 | V -0.094 | A -0.157 | T -0.088 | F -0.17 | D -0.047 | G -0.592 | K -0.072 | C -0.324 | M -0.595 | W -0.692
N21: M -0.421 | I -0.351 | P -0.987 | A -0.198 | F -0.659 | S -0.17 | E -0.016 | T -0.173 | L -0.551 | W -0.67 | K -0.303 | D -0.153 | R -0.274 | V -0.335 | Y -0.36 | Q -0.044 | H -0.182 | C -0.008
N15: F -0.543 | V -0.307 | H -0.085 | Y -0.615 | L -0.15 | I -0.78 | C -0.086 | W -0.361 | A -0.247 | S -0.193 | R -0.217 | P -0.378 | T -0.217 | M -0.132 | K -0.13 | D -0.093 | Q -0.281
L11: P -1.01 | D -0.622 | G -0.477 | V 0.053 | M -0.092 | Y -0.339 | S -0.283 | Q -0.435 | F -0.498 | A -0.279 | C -0.409 | H -0.482 | R -0.222 | E -0.002
P24: V -0.386 | C -0.462 | M -0.327 | T -0.641 | R -0.909 | Q -0.741 | L -0.394 | Y -0.805 | D -0.792 | I -0.21 | K -1.1 | W -0.317 | A -0.497 | E -0.978 | N -0.96 | F -0.916 | H -0.905
T30: Q -0.119 | P -0.692 | K -0.176 | M 0.102 | E -0.259 | W -0.393 | R -0.119 | H -0.061 | A -0.046 | S -0.232 | I -0.088 | N -0.177 | Y -0.25 | L -0.216 | G -0.128
F18: Q -0.937 | M -0.76 | E -0.892 | K -0.927 | G -0.848 | N -1.06 | I -0.562 | W -0.086 | H -0.698 | C -0.522 | R -0.856 | Y 0.107 | P -1.07 | V -0.713 | S -0.593 | T -0.961
H17: N -0.101 | Y -0.065 | E 0.064 | R -0.101 | C -0.063 | P -0.961 | G -0.369 | A -0.03 | D -0.156 | F -0.056 | V -0.031 | W 0.011 | Q -0.002 | M -0.028 | I -0.028 | K 0.04 | S -0.065 | L -0.008
S25: I -0.355 | W -0.92 | Q -0.313 | N -0.073 | R -0.125 | C -0.232 | D -0.17 | L -0.213 | Y -0.872 | A -0.185 | H 0.073 | M -0.313 | V -0.207 | G -0.051 | T 0.003 | E -0.383 | F -0.515
I13: A -0.01 | Q -0.132 | M -0.218 | H -0.172 | E -0.251 | W -0.219 | P -0.98 | C -0.113 | G -0.385 | Y 0.002 | T -0.003 | F -0.113 | L -0.017 | S -0.279
K20: G -0.129 | A -0.064 | D -0.291 | F -0.421 | H -0.239 | R -0.017 | T -0.057 | M -0.02 | C -0.289 | S -0.088 | N -0.227 | Q -0.17 | W -0.303 | Y -0.224 | P -0.936 | I -0.245 | V -0.131 | E -0.007 | L -0.144
E12: S -0.009 | M -0.222 | P -0.724 | R -0.107 | W -0.233 | V -0.331 | K -0.695 | D -0.002 | Q -0.298 | L -0.403 | C -0.261 | A -0.401 | G -0.105
E31: M 0.061 | C -0.424 | A -0.114 | I -0.534 | G -0.041 | L -0.288 | K -0.31 | D -0.077
A16: Q 0.019 | Y -0.151 | I -0.183 | R -0.084 | L -0.054 | W -0.164 | M 0.016 | H 0.044 | C -0.164 | P -0.865 | K -0.044 | E -0.002 | G -0.049 | S -0.16 | N 0.02 | V -0.078 | D 0.113 | F -0.091
A10: G -0.087 | F -0.538 | K -0.587 | M -0.206 | N -0.106 | E 0.062 | Q -0.107 | V -0.227 | L -0.51 | W -0.87 | S -0.262 | Y -0.76 | R -0.904
Q27: D 0.25 | G -0.063 | W -0.142 | S -0.071 | Y -0.315 | M -0.39 | H 0.243 | A -0.063 | V -0.091 | P -0.005 | F -0.737 | I 0.091 | N -0.106 | L 0.064 | E 0.05 | R 0.012 | T 0.022 | K 0.131
L14: K -0.874 | D -0.972 | F -0.877 | V -0.729 | S -1.05 | Y -0.878 | T -0.936 | H -0.788 | Q -0.819 | W -1.03 | G -0.919 | P -0.852 | N -1.06 | E -1.07 | C -0.734 | I -0.898 | A -0.969
